Test results as given in the supplement of paper PMC12042874.
± gives the uncertainty stated by the source.

Test: amyloid nucleation score (Sup35N fusion, yeast selection) (log enrichment); library NNK2; higher = more nucleation; inactive = no reads after selection
Outline: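 Plasmid inserts were Illumina-sequenced at input and output from psi-negative yeast expressing Sup35N fused to peptides of 20 random codons. The yeast were induced with 100 μM copper sulfate for 24 hours and grown 7 days at 30°C on medium lacking adenine and uracil, and sequences with under 100 input reads were excluded. Nucleation score is the DiMSum log enrichment of output over input reads, centred on the mode score of non-aggregating sequences.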

| Substance | amyloid nucleation score |
| --- | --- |
| FRYIFRHKHGWTFLHKMVRK | -1.07 ± 1.1 |
| FRYLDRSNYRKSCGYIITLT | -0.74 ± 1.1 |
| FSDWIWTYCSQSFNGQE | -0.817 ± 0.76 |
| FSEPWKWYYADLVFLSVTWL | inactive |
| FSEVSCGLCTMYTLFVEFFN | 0.174 ± 1 |
| FSFNIPQFINV | inactive |
| FSFRLYMEFLWGI | inactive |
| FSFYLGRKSMRWCNSCWYSW | -0.445 ± 0.22 |
| FSGRKPSIVLHHSSECQP | 2.38 ± 0.2 |
| FSGSTIDWL | -0.302 ± 0.3 |
| FSKSVVGSPERKHVDT | 0.948 ± 0.34 |
| FSMFMDIRRFMGSRWCV | 0.089 ± 1.1 |
| FSPLC | 1.83 ± 0.14 |
| FSRQISNGFIRGLFL | inactive |
| FSSFDIMRQLTMLNICLVSW | 5.773 ± 0.047 |
| FSSNLISPSVEISCVLIWLG | 5.67 ± 0.074 |
| FSSQFHLRAYNTIRCSLDDF | 0.534 ± 0.8 |
| FSSSEHVFQVDGGFDKNRPI | -1.47 ± 0.78 |
| FSTCYPPSDWVSRMASETLN | -0.096 ± 0.65 |
| FSVDMHRWLMTWRHQRDRRV | 2.75 ± 0.18 |
| FSVMMLMAVLMGTKIGVTEN | 4.19 ± 0.087 |
| FSVRVTSRFIRYEGSFHFSK | 0.032 ± 0.76 |
| FTGCVYSVFSNQQ | 4.76 ± 0.11 |
| FTIALIYTFLLISCLLGMSV | 0.164 ± 1.1 |
| FTLFVRHPGIVALERNFMVR | -0.062 ± 0.35 |

| Substance | amyloid nucleation score |
| --- | --- |
| FTMGVRRLCYSWLRARFVKC | -0.368 ± 1 |
| FTNLVTLYVYCYSFWYGILN | -0.232 ± 1.1 |
| FTNNSPARSCDRVHGDGVRH | 0.376 ± 0.35 |
| FTNVSEIWMSFGHNPESGLA | 2.92 ± 0.074 |
| FTVLCYSSDIMEDFRFTHHN | 4.12 ± 0.047 |
| FVCLVLRLCTMGSRASGLKK | 0.255 ± 1.1 |
| FVCYADTNNGPQVVRTELSV | -0.299 ± 1.1 |
| FVDDLARGLLVKRECSWQMQ | 0.523 ± 0.33 |
| FVEGLYWVSVVILG | -1.58 ± 1 |
| FVEMLYLGDVGDCHILQCVY | inactive |
| FVGTAQEEIHGFMNCIVELR | inactive |
| FVHIIESELYSEQTRESHLL | -0.586 ± 0.29 |
| FVKYNCIFNASLTCHK | 7.686 ± 0.038 |
| FVLTCRSSLYAVRDRLK | 1.35 ± 0.43 |
| FVLTSSMVLFWDGRNDARHG | 4.31 ± 0.08 |
| FVPSSLEGPLAGCYSAFIFE | inactive |
| FVRQDYKRVRDLFPTLNFDK | -0.949 ± 0.64 |
| FVSIVPYRFL | -1.56 ± 0.48 |
| FVSMNAGVYVGHRGHIMEFI | inactive |
| FVVLFLFYFEVFAVYKVSLG | inactive |
| FVVQPLSSFLWVSIA | 1.05 ± 0.3 |
| FVWMCQLS | 6.297 ± 0.048 |
| FVYGQWPNRSRAISSTSMFK | -0.723 ± 0.36 |
| FVYNLTKTGLCYAQSVKYHN | -0.483 ± 0.39 |
| FWCINVSTWYNNQELI | inactive |

| Substance | amyloid nucleation score |
| --- | --- |
| FWFMVCLIAG | -0.223 ± 0.48 |
| FWIDYLVKFCCDLRMRMILK | 1.64 ± 0.2 |
| FWRSMTYVRF | -0.526 ± 0.36 |
| FWVKVNMSLGMSNLFVYACL | 6.298 ± 0.024 |
| FWVRNVDTLWLSPRYVTWSG | -0.323 ± 0.33 |
| FWYLLSLGQIIRSVNLGNWI | -0.78 ± 1.1 |
| FYDVSCTRTDIMVESTSRLS | 5.24 ± 0.086 |
| FYEHRIIFFVLGFFNATTGS | inactive |
| FYESELLSARQFSVYVSLMM | inactive |
| FYFDGQLV | -0.743 ± 0.76 |
| FYHYDLLYRSGVLWRNHHGP | 2.77 ± 0.1 |
| FYIGILGDLWWRRR | 1.15 ± 0.57 |
| FYIMFLVRCYKDEPSTRANL | -0.796 ± 0.62 |
| FYKREVIFVLRLFFTVKQGR | -1.73 ± 1.1 |
| FYLFQWCK | -0.889 ± 1.1 |
| FYLMPDCLWGGKSSWSFLHL | -0.873 ± 0.5 |
| FYPSWNLYRVRGQPYLNRVR | -0.352 ± 1.1 |
| FYTYCSLGWTEAAGAVFLES | -1.34 ± 0.75 |
| FYVNSWPSPLGTYWRGYNGR | 0.106 ± 1 |
| FYWNEICFNSSKE | inactive |
| FYYSDDEFKCTVEIPVIYLI | -1.07 ± 0.5 |
| GADGISCFGISDKLGYDKFL | -0.1 ± 1 |
| GAGLMALNLTHFVGGGLSTN | -0.179 ± 0.76 |
| GALRPAFLSCKMVWR | 0.528 ± 0.49 |
| GALYLRDVLVICIMCGKIRY | 2.73 ± 0.1 |

| Substance | amyloid nucleation score |
| --- | --- |
| GARASQRCESVGLPLEYVSR | 0.974 ± 0.29 |
| GARMHCGFCMGSWWYVFWVR | 1.32 ± 0.37 |
| GAVRVYNYNYQEVKTLLLVE | -0.425 ± 0.32 |
| GCCPAALFEFT | -1.07 ± 0.78 |
| GCDLKLGVKCLKNERRVPEF | 0.382 ± 0.8 |
| GCIGGHRFYSPRSNSVFEVG | 3.44 ± 0.081 |
| GCNRQMSARK | 4.29 ± 0.044 |
| GCQGVEGSESEQIDQIENWA | 0.978 ± 0.74 |
| GCVNYNGRCEVDGRAD | -0.227 ± 0.23 |
| GCYHVMVRNNKTGVLVMRSA | 0.545 ± 0.57 |
| GDFDKDV | -0.188 ± 0.5 |
| GDGRVYMVIGSGRGRV | 0.506 ± 0.41 |
| GDGSRS | 0.813 ± 0.23 |
| GDIRLLSRNVLGYIGALLDL | 0.179 ± 0.39 |
| GDLRYQSPSLCFCFMSFGDQ | 5.971 ± 0.024 |
| GDSNG | -0.532 ± 0.29 |
| GDTYMGVYANLVMLALYGPG | 5.2 ± 0.088 |
| GDYGPSDIMKKQFLFVSLVY | -0.744 ± 1.1 |
| GEDHYIPQLFDGSVIILART | 0.117 ± 0.79 |
| GEFLYNT | -0.237 ± 1 |
| GELGQCVIKSVMSMLHKRAN | -0.347 ± 0.79 |
| GESTWATVLACPSERRSCSR | 0.559 ± 0.33 |
| GFIYLILTL | 1.28 ± 0.13 |
| GFKAMRCLWSGVARSIVRDS | -0.242 ± 0.49 |
| GFKYVRSRNSGALYKYSS | -0.962 ± 0.54 |

| Substance | amyloid nucleation score |
| --- | --- |
| GFPRMTIHVKFHGQFSCFII | 0.615 ± 0.5 |
| GFSEL | 0.306 ± 0.65 |
| GFTRKASGADTRGRRTAVSS | 1.61 ± 0.37 |
| GFVYQVIITIRHVCSLKRNR | 0.76 ± 0.16 |
| GGFSLMIFVCAGSHLG | 5.26 ± 0.07 |
| GGGSG | 0.123 ± 1 |
| GGIAACPGLEINWKFDLVQW | 0.914 ± 0.32 |
| GGILH | -0.254 ± 1 |
| GGLELLLGKMNVNVAMLKSF | 1.09 ± 0.17 |
| GGLFRFYS | inactive |
| GGLVVECRVGW | 3.42 ± 0.13 |
| GGNSQMFRLSLGDTKCSGSY | -1.06 ± 1.1 |
| GGNVLRE | -0.527 ± 0.35 |
| GGREARMGRKKGERVYRVRF | 0.657 ± 0.56 |
| GGSVMQILGWFLQAV | 0.683 ± 0.42 |
| GGVAETGERFWHSRLHG | 0.679 ± 0.81 |
| GHIFSRHVKGQLHGWEEDGP | 0.058 ± 1 |
| GHLYSISCVFNI | 8.633 ± 0.044 |
| GHMVYRTNVGRSV | 0.187 ± 0.74 |
| GIFSCRLCSMLIELLMLRIM | -0.505 ± 1.1 |
| GIGFKWGTILLKSLGNIYSQ | -0.263 ± 0.76 |
| GIGYRNVISSIMGFRFTGIR | 0.109 ± 0.53 |
| GIHRSMTFLTNQNRLIWSHG | 1.17 ± 0.4 |
| GIIGYDVKNKHHLTVGLRFI | -0.285 ± 0.24 |
| GILNRTRPFR | -0.595 ± 0.28 |

| Substance | amyloid nucleation score |
| --- | --- |
| GIPMSSPNGLDTYSTPMH | 2.63 ± 0.074 |
| GIQGLRVWFAYMFPSVVLLC | -0.987 ± 0.78 |
| GISVICLYGVQYSDVGGVNL | 5.098 ± 0.043 |
| GIVYVALSHYLAVNTKVFMP | 0.477 ± 0.66 |
| GKCYFA | -1.87 ± 0.62 |
| GKDGRVFGSEAYWMEGKRKW | 0.235 ± 0.8 |
| GKGRMYES | 0.738 ± 0.24 |
| GKINDSGTSYSEKRSGPCRL | -0.874 ± 0.25 |
| GKSEVGLGVGEHMQSEHGGS | -0.055 ± 0.49 |
| GKYSLTTCAR | 0.449 ± 0.8 |
| GLGAKYWIYVVGFHCVHN | 0.289 ± 0.39 |
| GLGLICLQMGGFCMWRFRRM | 0.197 ± 0.24 |
| GLGSRWRCA | 2.01 ± 0.24 |
| GLGYSLICNLTSICGKNNV | -0.147 ± 1.1 |
| GLHSGNFTACICM | 8.731 ± 0.055 |
| GLICRV | 0.518 ± 0.46 |
| GLIGCAMSVVPHEELCVRTC | 1.07 ± 0.29 |
| GLKDAIMYSVVTLIRYRQDD | -0.809 ± 0.56 |
| GLNVFCEKYISFKVMGIVER | 5.24 ± 0.069 |
| GLQRKGCP | -0.356 ± 1.1 |
| GLRHGLCRSLLY | -0.642 ± 1.1 |
| GLRNDGAEVINSQPFLAHMC | 0.497 ± 0.5 |
| GLRRVKFYIKVIFAKSSLVI | -1.84 ± 0.49 |
| GLSAHYA | 0.113 ± 1.1 |
| GLTLMSR | 1.06 ± 0.12 |

| Substance | amyloid nucleation score |
| --- | --- |
| GLTSFMLDVLRGETAHRGEG | 0.972 ± 0.52 |
| GLTYKSDWSSFRSVYL | -0.771 ± 0.55 |
| GLYEYPHGKTIMVDWMAGRL | 1.17 ± 0.28 |
| GMAFAKA | 0.077 ± 0.63 |
| GMFLWLFLVPRYHPTSTELG | 0.219 ± 1 |
| GMGQTRKCHAGGNWHVYSCR | 0.738 ± 0.47 |
| GMLRGSK | -0.359 ± 0.39 |
| GMNAAGEVWVRGWTSGCMVY | 0.225 ± 0.5 |
| GMVCVP | 0.876 ± 0.25 |
| GMWFPLWFVDSSNSMSLLCV | -1.59 ± 0.76 |
| GMWRIPYGWGPCYHSCVNQG | 4.958 ± 0.047 |
| GMYGLCF | -0.524 ± 0.64 |
| GNFVHTYNIK | 0.526 ± 0.66 |
| GNFVRLLV | -0.031 ± 0.37 |
| GNGMNWPC | 2.16 ± 0.13 |
| GNMYLSEVNVTC | -0.78 ± 1.1 |
| GNNGRFSWVY | 0.556 ± 0.37 |
| GNNIVDPMLYLEGFKFSPIP | 0.082 ± 0.65 |
| GNRYSLCEAYATYLFSLDWY | inactive |
| GNTHHRDGILESQPFFVTEA | 0.465 ± 0.29 |
| GNVECS | -0.463 ± 0.45 |
| GNVGL | 1.86 ± 0.078 |
| GNVSYHSCVW | 0.449 ± 0.36 |
